Results on two molecules are retold here after paper PMC3538003, “A full-length recombinant Plasmodium falciparum PfRH5 protein induces inhibitory antibodies that are effective across common PfRH5 genetic variants” (Vaccine, 2013).

Read-outs that look alike come from different tables or passages of the source.

Assay [1] has as its target 7G8 PfRH5-Cd4-biotin (P. falciparum Reticulocyte Binding Protein Homologue 5, 7G8 variant) (Plasmodium falciparum (7G8)). In words: SPR; kinetic analysis, simple 1:1 model fitted globally; biotinylated PfRH5-Cd4 captured on a streptavidin chip, biotinylated rat Cd4d3+4 in the reference cell; serial dilutions of basigin-Cd4-6H injected at 100 µl/min; BIAcore T100, 37°C, HBS-EP; regeneration with 2M NaCl.

The target of assay [2] is GB4 PfRH5-Cd4-biotin (P. falciparum Reticulocyte Binding Protein Homologue 5, GB4 variant) (Plasmodium falciparum (GB4)). The assay is described as above.
Assay [3] shares this target. The description is as above. This is another data set of the same source.
Assay [4] concerns the target 3D7 PfRH5-Cd4-biotin (P. falciparum Reticulocyte Binding Protein Homologue 5, 3D7 variant) (Plasmodium falciparum (3D7)). The experiment in a line: SPR; equilibrium analysis; biotinylated PfRH5-Cd4 captured on a streptavidin chip, biotinylated rat Cd4d3+4 in the reference cell; serial dilutions of basigin-Cd4-6H injected at 20 µl/min; BIAcore T100, 37°C, HBS-EP; regeneration with 2M NaCl.

In assay [5] the target is GB4 PfRH5-Cd4-biotin (P. falciparum Reticulocyte Binding Protein Homologue 5, GB4 variant) (Plasmodium falciparum (GB4)). The assay is described as above.
In assay [6] the target is 7G8 PfRH5-Cd4-biotin (P. falciparum Reticulocyte Binding Protein Homologue 5, 7G8 variant) (Plasmodium falciparum (7G8)). Described as above.
Assay [7] deals with GB4 PfRH5-Cd4-biotin (P. falciparum Reticulocyte Binding Protein Homologue 5, GB4 variant) (Plasmodium falciparum (GB4)). The description is as above. This is another data set of the same source.
Assay [8] has as its target 3D7 PfRH5-Cd4-biotin (P. falciparum Reticulocyte Binding Protein Homologue 5, 3D7 variant) (Plasmodium falciparum (3D7)). In words: SPR; kinetic analysis, simple 1:1 model fitted globally; biotinylated PfRH5-Cd4 captured on a streptavidin chip, biotinylated rat Cd4d3+4 in the reference cell; serial dilutions of basigin-Cd4-6H injected at 100 µl/min; BIAcore T100, 37°C, HBS-EP; regeneration with 2M NaCl.

The target of assay [9] is GB4 PfRH5-Cd4-biotin (P. falciparum Reticulocyte Binding Protein Homologue 5, GB4 variant) (Plasmodium falciparum (GB4)). The assay is described as above. The source holds these as a separate data set.
Assay [10] concerns the target 7G8 PfRH5-Cd4-biotin (P. falciparum Reticulocyte Binding Protein Homologue 5, 7G8 variant) (Plasmodium falciparum (7G8)). Described as above. The source holds these as a separate data set.
Assay [11] has the same target. In words: SPR; equilibrium analysis; biotinylated PfRH5-Cd4 captured on a streptavidin chip, biotinylated rat Cd4d3+4 in the reference cell; serial dilutions of basigin-Cd4-6H injected at 20 µl/min; BIAcore T100, 37°C, HBS-EP; regeneration with 2M NaCl. The source holds these as a separate data set.
Assay [12] has the same target. The experiment in a line: SPR; kinetic analysis, simple 1:1 model fitted globally; biotinylated PfRH5-Cd4 captured on a streptavidin chip, biotinylated rat Cd4d3+4 in the reference cell; serial dilutions of basigin-Cd4-6H injected at 100 µl/min; BIAcore T100, 37°C, HBS-EP; regeneration with 2M NaCl. This is another data set of the same source.
For assay [13], the target named is 3D7 PfRH5-Cd4-biotin (P. falciparum Reticulocyte Binding Protein Homologue 5, 3D7 variant) (Plasmodium falciparum (3D7)). The description is as above. The source holds these as a separate data set.
Assay [14] has as its target GB4 PfRH5-Cd4-biotin (P. falciparum Reticulocyte Binding Protein Homologue 5, GB4 variant) (Plasmodium falciparum (GB4)). In words: SPR; equilibrium analysis; biotinylated PfRH5-Cd4 captured on a streptavidin chip, biotinylated rat Cd4d3+4 in the reference cell; serial dilutions of basigin-Cd4-6H injected at 20 µl/min; BIAcore T100, 37°C, HBS-EP; regeneration with 2M NaCl. The source holds these as a separate data set.

For assay [15], the target named is 3D7 PfRH5-Cd4-biotin (P. falciparum Reticulocyte Binding Protein Homologue 5, 3D7 variant) (Plasmodium falciparum (3D7)). In words: SPR; kinetic analysis, simple 1:1 model fitted globally; biotinylated PfRH5-Cd4 captured on a streptavidin chip, biotinylated rat Cd4d3+4 in the reference cell; serial dilutions of basigin-Cd4-6H injected at 100 µl/min; BIAcore T100, 37°C, HBS-EP; regeneration with 2M NaCl. This is another data set of the same source.

The target of assay [16] is human basigin extracellular region, soluble Cd4d3+4-6H-tagged (basigin-Cd4-6H) (human, UniProt P35613 138-325). The experiment in a line: SPR; BIAcore T100; monomeric biotinylated PfRH5-Cd4 bait captured on a streptavidin-coated chip, Cd4-biotin in the reference flow cell; serial dilutions of purified basigin-Cd4-6H injected at 20 ul/min (equilibrium) or 100 ul/min (kinetics); Langmuir isotherm fit. Particulars: both partners purified.

On to “basigin-L-Cd4d3+4-6H (extracellular region of human basigin) (from UniProt P35613 138-325) (domain or fragment)”, for which the koff worked out at 0.245 s⁻¹ in assay [1]; 0.244 s⁻¹ in [2]; 0.23 s⁻¹ in assay [3]; 0.24 s⁻¹ in [8]; 0.216 s⁻¹ in [9]; 0.256 s⁻¹ in assay [10]. Further, the off-rate constant (koff) was determined as 0.251 s⁻¹ in assay [12], 0.238 s⁻¹ in assay [13] and 0.236 s⁻¹ in assay [15]. Besides, the kon in assay [1] is 122000 M⁻¹ s⁻¹; in [2], 95900 M⁻¹ s⁻¹; in assay [3], 110000 M⁻¹ s⁻¹; in assay [8] it was 89600 M⁻¹ s⁻¹; in [9] it was 118000 M⁻¹ s⁻¹; in assay [10], 128000 M⁻¹ s⁻¹. Moreover, the figures for the on-rate constant (kon) in assay [12], in [13] and in assay [15] were 125000 M⁻¹ s⁻¹, 93000 M⁻¹ s⁻¹ and 95600 M⁻¹ s⁻¹, respectively. Also, the Kd in assay [4] was 1600 nM; in [5], 1100 nM; in assay [6] it was 1000 nM; in assay [7], 800 nM; in [11] it was 800 nM; in assay [14] it was 1000 nM.

B1: 7G8 PfRH5-Cd4-biotin (P. falciparum Reticulocyte Binding Protein Homologue 5, 7G8 variant) (ligand)
chain: FENAIKKTKNQENNLALLPIKSTEEEKDDIKNGKDIKKEIDNDKENIKTNNAKDHSTYIKSYLNTNVNDGLKYLFIPSHNSFIKKYSVFNQINDGMLLNEKNDVKNNEDYKNVDYKNVNFLQYHFKELSNYNIANSIDILQEKEGHLDFVIIPHYTFLDYYKHLSYNSIYHKSSTYGKYIAVDAFIKKINEAYDKVKSKCNDIKNDLIATIKKLEHPYDINNKNDDSYRYDISEEIDDKSEETDDETEEVEDSIQDTDSNHAPSNKKKNDLMNRAFKKMMDEYNTKKKKLIKCIKNHENDFNKICMDMKNYGTNLFEQLSCYNNNFCNTNGIRYHYDEYIHKLILSVKSKNLNKDLSDMTNILQQSELLLTNLNKKMGSYIYIDTIKFIHKEMKHIFNRIEYHTKIINDKTKIIQDKIKLNIWRTFQKDELLKRILDMSNEYSLFITSDHLRQMLYNTFYSKEKHLNNIFHHLIYVLQMKFNDVPIKMEYFQTYKKNKPLTQ
modifications: monobiotinylated (biotin)
In assay [16], B1 registered a Kd of 900 nM.
